Results published in the nanobody polyreactivity screen of Harvey et al. (2022).

Assay: yeast display, Sf9 membrane polyspecificity reagent, FACS + sequencing; frameworks hold sequencing errors
Summary of the method: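 Polyreactivity labels are assigned by the sorting gate from which each nanobody was recovered. The gates were low and high (top ~1%), set on anti-HA fluorescence for expression and streptavidin fluorescence for reagent binding. Before sorting, galactose-induced (36–48 hours) yeast display cells were stained for 1 hour at 4 °C with 10% biotinylated, detergent-solubilized Sf9 membrane reagent.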

| Sequence | polyreactivity (PSR sort gate) |
| --- | --- |
| QVQLVESGGGLVQAGGSLRLSCAASGRSFTPYARGWYRQAPGKERELVAAISTIGGTTYADSVKGRFTISRDNAKNTVYLQRNSLKPEDTAVYYCAAERPPYPGNGRDYWGQGTQVTVSS | high polyreactivity |
| QVQLVESGGGLVQAGGSLRLSCAASGRSFWRNAMGWYRQAPGRERELVAAMSRGGSTNYADSVKGRFTMSRDNAKKTVYLPMNSLKPEDTAVYYCAARYYYRYNYWRQGTQVTVSS | high polyreactivity |
| QVQLVESGGGLVQAGGSLRLSCAASGRSFYRNAMGWYRQAPGKERELVAAITSSGASTYYADSVKGRFTISRDNAKNTVYLQMNSLKPEDTAVYYCAAKYVYSVGNYRYDYWGQGTQVTVSS | low polyreactivity |
| QVQLVESGGGLVQAGGSLRLSCAASGRSIRIYAMGWYRQAPGKERELVAAIRWSGGTTYYADSVKGRFTISRDNAKNTVYLQMNSLKPEDTAVYYCAADSTNRYDYWGQGTQVTVSS | high polyreactivity |
| QVQLVESGGGLVQAGGSLRLSCAASGRSIYRNAMGWYRQAPGKERELVAAISGRGGGTYYADSVKGRFTLSRDNAKNTVYLQMNSVKPEETAVYYCAAERKNKYDYWGQGTQVTVSS | high polyreactivity |
| QVQLVESGGGLVQAGGSLRLSCAASGRTALRNAMGWYRQAPGKEREFVADIRWSGGSTYYADSVKGRFTISRDKAKNTVYLQMNSQKPEDTAVYYCAAGYVRYPYWYYYWGQGTQVTVSS | high polyreactivity |
| QVQLVESGGGLVQAGGSLRLSCAASGRTCGKYAMGWYRQAPGKERELVATISRSGGSTYYADSVKGRFTISRDTAKYTVYLQMNSLKPEDTAVYYCNAVTSRYIWPPVLDRYHYWGQGTQVTLSS | high polyreactivity |
| QVQLVESGGGLVQAGGSLRLSCAASGRTDNTNAMGWYRQAPGKERELVAAITRSGDSTYYADSVKGRFTISRDNAKNTVYLQMNSLKPEDTAVYYCAAYSRTLYPDRYYWGQGTQVTVSS | high polyreactivity |
| QVQLVESGGGLVQAGGSLRLSCAASGRTDRTNAMGWYRQAPGKERELVAAISTGGGITNYADSVKGRITISRDNAKNTVYLQMNSLKPEDTAVYYCNADIYTWFQIGGYQYDYWGQGTHVTVSS | low polyreactivity |
| QVQLVESGGGLVQAGGSLRLSCAASGRTFAAYDMGWYRQAPGKERELVAAITSGGSTNYADSVKGRFTISRDNAKNTVYLQMNSLKPEDTAVYYCNARFRKWPQARYGVRYYYWGQGTQVTVSS | high polyreactivity |
| QVQLVESGGGLVQAGGSLRLSCAASGRTFADFTMGWYRQAPGKERELVAAISFSGGSTYYADSVKGRFTISRDNAKNTVYLHMNSLKPEDTAVYYCAAGHKRRAPRYYDWGQGTQVTVSS | high polyreactivity |
| QVQLVESGGGLVQAGGSLRLSCAASGRTFADYVMGWYRQAPGKERELVAAITSSGGSTYYADSVKGRFTISRDNAKNTVYLQMNSLKPEDTAVYYCAAQQSPSVDYWGQGTQVTVSS | low polyreactivity |
| QVQLVESGGGLVQAGGSLRLSCAASGRTFAGYVMGWYRQAPGKERELVAAISTSGGSTYYADSVKGRFTISRDNAKNTVYLQMNSLKPEDTAVYYCNVYLKHRYYNQMDYWGQGTQVTVSS | high polyreactivity |
| QVQLVESGGGLVQAGGSLRLSCAASGRTFALNVMGWYRQAPGKERELVAAISRSGGSTYYADSVTGRFTISRDNAKNTVYFQMNSLKPEDTAVYYGAAATHYQSYNRRDYWGEGTQVTVSS | high polyreactivity |
| QVQLVESGGGLVQAGGSLRLSCAASGRTFALYALGRYRQAPGKERELVASISWRGGSTYYADSVKGRFTISRDNANNTVYVQMNRLKPEDTAVSYCAADTGSYGPLIYRLEYWGQGTQVNVSS | low polyreactivity |
| QVQLVESGGGLVQAGGSLRLSCAASGRTFALYTMGWYRQAPGKVRELVAAINWSGTSTYYADSVKGRFTISRDNAKNTVYLQMNSLKPEDTAVYYCNRDPRKYGKLDYWGQGTQVTVSS | low polyreactivity |
| QVQLVESGGGLVQAGGSLRLSCAASGRTFANNAMGSYRPAPGKAREWVASISITTSTYYADSVKGRFTISRDNAKITVYLQLNSLKPEDTPVYYCAAYYFIHAGPWEFDYWGQGTQVTVSS | low polyreactivity |
| QVQLVESGGGLVQAGGSLRLSCAASGRTFANYAMGWYRQAPGKDRELVAAIYSGGNTYYEDSVKGRFTISRDNAKNTVFLQMNRLKPEDTAVYYCNSPWYYRYQRNEYGYWGQGTQVTVSS | high polyreactivity |
| QVQLVESGGGLVQAGGSLRLSCAASGRTFAPYAMGWYRQAPGKERELVAAISWSGGSTYYADSVKGRFTISRDNAKNSVYLQMNSLKPEDTAVYYCAVVVDYDADRYWGYDYWGQGTQVTVSS | high polyreactivity |
| QVQLVESGGGLVQAGGSLRLSCAASGRTFAQYAMGWYRQAPGKERELVAAISRSGGSTFYADSVKGRFTISRDNAKNTVYLQMNSLKPEDTAVYYCAAYNRQASLDYWGQGTQVTVSS | high polyreactivity |
| QVQLVESGGGLVQAGGSLRLSCAASGRTFARNAMGWYRHAPGKERELVAAISGSGGITYYADSVKGRFTISRDNAKNTVYLQMNSLKPEDTAVYYCNAGNNVVVDYDYWGQGTQVTVSS | low polyreactivity |
| QVQLVESGGGLVQAGGSLRLSCAASGRTFARYAMGWYRPAPGKERELVAAISSSGVSSYYADSVKGRFTISRDNAKNTVYLQMNSLKPDDTAVYYCVTYRNWWYDYWGQGTQVTVSS | high polyreactivity |

| Sequence | polyreactivity (PSR sort gate) |
| --- | --- |
| QVQLVESGGGLVQAGGSLRLSCAASGRTFARYAMGWYRQAPGKERELVAAITRGGSTKYADSVKGRFTISRDNAKNTVYLQMNSLKPEDTAVYYCNKVIVQYTLDRGYWGQGTQVTVSS | high polyreactivity |
| QVQLVESGGGLVQAGGSLRLSCAASGRTFARYAMGWYRQAPGKERELVAVISRTGSTYYADSVKGRFTISRDNAKNTVYLQMNSLKPEDTAVYYCATVYYYLAYGWSYSDMDYWGQGTQVTVSS | high polyreactivity |
| QVQLVESGGGLVQAGGSLRLSCAASGRTFARYTMGWYSQAPVKERELVASITRGGSTYYADSVKGRFTISSDNAKNTVYLQMYSLKPEDTAVYYCNAVYIVGGDWGQGTQVTVSS | high polyreactivity |
| QVQLVESGGGLVQAGGSLRLSCAASGRTFARYVMGWYRPAPGKERELVASISNSGGSTYYADSVKGRFTISRDNAKNTVYLQMNSQKPEDTAVSYCARRYYYWGQGTQVTVSS | high polyreactivity |
| QVQLVESGGGLVQAGGSLRLSCAASGRTFASNAMGWYRQAPGKERELVAAISYSGGRTYYADSVKGRFTISRDNAKNTVYLQMNSLKPEDTAVYYCAKVGPVYKYDYWGLGTQVTVSS | high polyreactivity |
| QVQLVESGGGLVQAGGSLRLSCAASGRTFASYAMGWYRQAPGKERELVASIRYSGGSTHYADSVKGRFTISRDNAKNPVYLQMNSLKPEDTAVYYCNARPKFRTYNYWGQGTQVTVSS | high polyreactivity |
| QVQLVESGGGLVQAGGSLRLSCAASGRTFASYVMGWYRQAPGKERELVAAIDWHTGSTYYADSVKGRFTISRDNAKNTVYLQMNSLKPEDTAVYYCAAVYFLYPEGYWQTLYEYYYWGQGTQVTVSS | low polyreactivity |
| QVQLVESGGGLVQAGGSLRLSCAASGRTFATYAMGWYRQAPGKERELVAAISSGGSTYYADSVKGRFTISRDNAKNTVYLQMNSLKPEDTAVYYCAVYVDYYGYGYWGQGTQVTVSS | high polyreactivity |
| QVQLVESGGGLVQAGGSLRLSCAASGRTFAVNAMGWYRQAPGKESELVAAISQRAGRTYYADSVKGRFTISRDNAKNTVYLQMNSLKPEDTAVYYCNVVGFRSRVGSRGYWGQGTQVTVSS | high polyreactivity |
| QVQLVESGGGLVQAGGSLRLSCAASGRTFAVYAMGWYRQAPGKERELVAAISGRGGNTYYADSVKGRFTISRDNAKNTVYFQMNSLKPEDTAVYYCAAKAYQSEYGYWGQGTQVTVSS | high polyreactivity |
| QVQLVESGGGLVQAGGSLRLSCAASGRTFAVYAMGWYRQATGKERELVAAISSGGSTYYADSVKGRFTISRDNAKNTVYLQMNSLKPEDTAVYYCTARWGYRRGYCGQGTQVTVSS | high polyreactivity |
| QVQLVESGGGLVQAGGSLRLSCAASGRTFAWKAMGWYRQAPGKERELVAAMSSRGTSTYYADSVKGRFTISRDNAKKTVYLQMNSLKPEDTAVYYCAKYTNPASGEYGYWGQGTQVTVSS | high polyreactivity |
| QVQLVESGGGLVQAGGSLRLSCAASGRTFAWYAMGWYRQAPGKERELVAAISSGGSTYYADSVKGRFTISRDNAKNTVYLQMNSLKPEDTAVYYCAAEWHYIYAYDSWGQGTQVTVSS | low polyreactivity |
| QVQLVESGGGLVQAGGSLRLSCAASGRTFAWYAMGWYRQAPGKERELVAAITTRGSGTYYADSVKGSFTISRDNAKNTVYLQMHSLKPEDTAVYYCAKDPITATTLDERVYYWGQGTQVTVSS | low polyreactivity |
| QVQLVESGGGLVQAGGSLRLSCAASGRTFAYNAKGWYRQPPGKERELVASITVGGGSTYYADSVKGRFTISRDNAKNTVYLQMNSLKPEDTAVYYCAARVPSWKYDYWGQGTQVTVSS | high polyreactivity |
| QVQLVESGGGLVQAGGSLRLSCAASGRTFAYNAMGWYRPAPGKERELVAAITGSGGRTYYADSVKGRFTISRDNAKNTVYLQMNSLKAEDTAVYYCAVGLPSRYDYWGQGTQVTVSS | low polyreactivity |
| QVQLVESGGGLVQAGGSLRLSCAASGRTFAYNAMGWYRQAPGKEREMVASITSGGSTNYADSVKGRFTISRDNAKNNVYLQINSLIPEDTAVYYCNIDGKYHLVLYDYWGQGTQVTVSS | low polyreactivity |
| QVQLVESGGGLVQAGGSLRLSCAASGRTFAYYAMGWYRQAPGKERELVAAIDSSGGSTYYADSVKGRFTISRDNAKNTVYLQMNSLKPEDTAVYYCAASYPYDRYDQGGYGYWGQGTQVTVSS | low polyreactivity |
| QVQLVESGGGLVQAGGSLRLSCAASGRTFAYYAMGWYRQAPGKERELVSTITWSDGSTYADSVKGRFTISRDNAKNTVYLQMNSLKPEDTAVYYCAAQGWSWYWYYFYLFDYWGQGTQVTVSS | high polyreactivity |
| QVQLVESGGGLVQAGGSLRLSCAASGRTFAYYTMGWYRQAPGKERELVDAISSRGGRTYYADSVKGRFTISRDNAKNTVYLQMNSLKPEDTAVYYCAAVSHGVYYQYRRRYYSWGQGTQVTVSS | high polyreactivity |
| QVQLVESGGGLVQAGGSLRLSCAASGRTFCRYAMGWYIQAPGKERELVASISVSGGGTYYADSVKGRFTISRDNAKNTVFLQMNSLKPQDTAVYYCAARPVYYRYRRDYWGQGTHVTVSS | high polyreactivity |
